Tests used:
Settings in all cases: Homo sapiens
[1] = substrate: Cc1ccc(OCCNc2nc(Nc3cc(C)[nH]n3)cc(C)c2C#N)cn1
Description: Activity at LYN (unknown origin)

[2] = substrate: Cc1ccc(OCCNc2nc(Nc3cc(C)[nH]n3)cc(C)c2C#N)cn1; remark: listed apart in the source
Description: Activity at Aurora 1 kinase (unknown origin)

[3] = substrate: Cc1ccc(OCCNc2nc(Nc3cc(C)[nH]n3)cc(C)c2C#N)cn1; remark: listed apart in the source
Description: Activity at Aurora 2 kinase (unknown origin)

B1: Tyrosine-protein kinase Lyn (Homo sapiens), P07948 (protein)
chain: MGCIKSKGKDSLSDDGVDLKTQPVRNTERTIYVRDPTSNKQQRPVPESQLLPGQRFQTKDPEEQGDIVVALYPYDGIHPDDLSFKKGEKMKVLEEHGEWWKAKSLLTKKEGFIPSNYVAKLNTLETEEWFFKDITRKDAERQLLAPGNSAGAFLIRESETLKGSFSLSVRDFDPVHGDVIKHYKIRSLDNGGYYISPRITFPCISDMIKHYQKQADGLCRRLEKACISPKPQKPWDKDAWEIPRESIKLVKRLGAGQFGEVWMGYYNNSTKVAVKTLKPGTMSVQAFLEEANLMKTLQHDKLVRLYAVVTREEPIYIITEYMAKGSLLDFLKSDEGGKVLLPKLIDFSAQIAEGMAYIERKNYIHRDLRAANVLVSESLMCKIADFGLARVIEDNEYTAREGAKFPIKWTAPEAINFGCFTIKSDVWSFGILLYEIVTYGKIPYPGRTNADVMTALSQGYRMPRVENCPDELYDIMKMCWKEKAEERPTFDYLQSVLDDFYTATEGQYQQQP
[1]
  Km: 1000 µM

B2: Aurora kinase B (Homo sapiens), Q96GD4 (protein)
chain: MAQKENSYPWPYGRQTAPSGLSTLPQRVLRKEPVTPSALVLMSRSNVQPTAAPGQKVMENSSGTPDILTRHFTIDDFEIGRPLGKGKFGNVYLAREKKSHFIVALKVLFKSQIEKEGVEHQLRREIEIQAHLHHPNILRLYNYFYDRRRIYLILEYAPRGELYKELQKSCTFDEQRTATIMEELADALMYCHGKKVIHRDIKPENLLLGLKGELKIADFGWSVHAPSLRRKTMCGTLDYLPPEMIEGRMHNEKVDLWCIGVLCYELLVGNPPFESASHNETYRRIVKVDLKFPASVPMGAQDLISKLLRHNPSERLPLAQVSAHPWVRANSRRVLPPSALQSVA
[2]
  Km: 30 µM

B3: Aurora kinase A (Homo sapiens), O14965 (protein)
chain: MDRSKENCISGPVKATAPVGGPKRVLVTQQFPCQNPLPVNSGQAQRVLCPSNSSQRIPLQAQKLVSSHKPVQNQKQKQLQATSVPHPVSRPLNNTQKSKQPLPSAPENNPEEELASKQKNEESKKRQWALEDFEIGRPLGKGKFGNVYLAREKQSKFILALKVLFKAQLEKAGVEHQLRREVEIQSHLRHPNILRLYGYFHDATRVYLILEYAPLGTVYRELQKLSKFDEQRTATYITELANALSYCHSKRVIHRDIKPENLLLGSAGELKIADFGWSVHAPSSRRTTLCGTLDYLPPEMIEGRMHDEKVDLWSLGVLCYEFLVGKPPFEANTYQETYKRISRVEFTFPDFVTEGARDLISRLLKHNPSQRPMLREVLEHPWITANSSKPSNCQNKESASKQS
[3]
  Km: 28 µM
